Measured values from patent US20130189255A1 (GlaxoSmithKline, published 2013).

B1: Rat serum albumin (other, UniProt P02770 25-608, looked up)
chain: EAHKSEIAHRFKDLGEQHFKGLVLIAFSQYLQKCPYEEHIKLVQEVTDFAKTCVADENAENCDKSIHTLFGDKLCAIPKLRDNYGELADCCAKQEPERNECFLQHKDDNPNLPPFQRPEAEAMCTSFQENPTSFLGHYLHEVARRHPYFYAPELLYYAEKYNEVLTQCCTESDKAACLTPKLDAVKEKALVAAVRQRMKCSSMQRFGERAFKAWAVARMSQRFPNAEFAEITKLATDVTKINKECCHGDLLECADDRAELAKYMCENQATISSKLQACCDKPVLQKSQCLAEIEHDNIPADLPSIAADFVEDKEVCKNYAEAKDVFLGTFLYEYSRRHPDYSVSLLLRLAKKYEATLEKCCAEGDPPACYGTVLAEFQPLVEEPKNLVKTNCELYEKLGEYGFQNAVLVRYTQKAPQVSTPTLVEAARNLGRVGTKCCTLPEAQRLPCVEDYLSAILNRLCVLHEKTPVSEKVTKCCSGSLVERRPCFSALTVDETYVPKEFKAETFTFHSDICTLPDKEKQIKKQTALAELVKHKPKATEDQLKTVMGDFAQFVDKCCKAADKDNCFATEGPNLVARSKEALA
notes: also called RSA
B2: GLP-1 (7-37) A8G, helical linker, DOM7h-14 dAb fusion (DAT0120) (other)
chain: HGEGTFTSDVSSYLEGQAAKEFIAWLVKGRGKEAAAKEAAAKEAAAKELAAKEAAAKEAAAKEAAAKELAADIQMTQSPSSLSASVGDRVTITCRASQWIGSQLSWYQQKPGKAPKLLIMWRSSLQSGVPSRFSGSGSGTDFTLTISSLQPEDFATYYCAQGAALPRTFGQGTKVEIKR
notes: also called GLP-1 A8G, helical linker, DOM7h-14 fusion; GLP-1 (7-37) A8G, helical linker, DOM7h-14 fusion
B3: 2xGLP-1 (7-37) A8G DOM7h-14 dAb fusion (DAT0114) (other)
chain: HGEGTFTSDVSSYLEGQAAKEFIAWLVKGRHGEGTFTSDVSSYLEGQAAKEFIAWLVKGRDIQMTQSPSSLSASVGDRVTITCRASQWIGSQLSWYQQKPGKAPKLLIMWRSSLQSGVPSRFSGSGSGTDFTLTISSLQPEDFATYYCAQGAALPRTFGQGTKVEIKA
notes: also called 2xGLP-1 (7-37) A8G DOM7h-14 fusion; 2xGLP-1 A8G DOM7h-14 fusion

Tests used:
[1] = target: T1, Exendin 4 (G4S linker)3 DOM7h-14 dAb fusion (DAT0115); test: SPR (Biacore), biotinylated albumin on streptavidin chip, fusion in solution
T1 construct: also called Exendin 4 (G4S)3 DOM7h-14 fusion
Experimental: The analysis was performed using a streptavidin chip (SA) coated with biotinylated serum albumin. 200-1000 resonance units (RUs) of each serum albumin was immobilised on the chip. Flow cell 1 was uncoated, flow cell 2 was coated with HSA, flow cell 3 was coated with RSA and flow cell 4 was coated with CSA.
Affinity (KD) was calculated from the BIACORE traces by fitting on-rate and off-rate curves to traces generated by concentrations of dAb in the region of the KD.

[2] = target: T2, Human serum albumin (human, UniProt P02768 25-609); test: SPR (Biacore), albumin immobilised on CM5 chip, fusion in solution
T2 construct: also called HSA
Experimental: (§1) The analysis was performed using a CMS Biacore chip (carboxymethylated dextran matrix) that was coated with serum albumin. About 1000 resonance units (RUs) of each serum albumin to be tested (human, rat and mouse serum albumin) was immobilised in acetate buffer pH 5.5. […] Affinity (KD) was calculated from the BIACORE traces by fitting on-rate and off-rate curves to traces generated by concentrations of dAb in the region of the KD.

[3] = target: T3, Mouse serum albumin (mouse, UniProt P07724 25-608); test: as above
T3 construct: also called MSA
T3 sequence (P07724 25-608 limits assumed): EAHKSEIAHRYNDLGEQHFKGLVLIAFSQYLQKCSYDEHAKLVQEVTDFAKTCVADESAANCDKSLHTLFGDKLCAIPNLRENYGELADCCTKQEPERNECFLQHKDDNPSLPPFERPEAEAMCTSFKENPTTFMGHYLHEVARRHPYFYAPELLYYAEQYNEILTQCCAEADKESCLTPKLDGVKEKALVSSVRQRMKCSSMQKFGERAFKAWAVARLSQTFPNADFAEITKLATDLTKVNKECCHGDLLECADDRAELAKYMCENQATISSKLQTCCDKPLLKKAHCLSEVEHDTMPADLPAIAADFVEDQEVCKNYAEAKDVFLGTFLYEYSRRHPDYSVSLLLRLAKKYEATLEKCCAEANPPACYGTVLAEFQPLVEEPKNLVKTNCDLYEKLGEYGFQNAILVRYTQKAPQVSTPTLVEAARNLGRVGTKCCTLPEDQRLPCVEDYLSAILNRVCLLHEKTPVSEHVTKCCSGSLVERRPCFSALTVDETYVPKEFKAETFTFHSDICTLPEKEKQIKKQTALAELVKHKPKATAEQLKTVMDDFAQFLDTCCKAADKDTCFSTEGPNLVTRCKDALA
Experimental: as §1

[4] = target: B1; test: as above
Experimental: as §1

Work on B1 yielded a Kd [1] of 2000 nM.

For B2, the Kd [2] was 110 nM, the Kd [3] was 110 nM and the Kd [4] was 800 nM.

With B3 the Kd [2] was 150 nM, the Kd [3] was 130 nM and the Kd [4] was 700 nM.
